Here are results for one substance from article PMC11742986.

The subject of the data set is RcnR (Salmonella enterica serovar Typhimurium SL1344 (100% sequence identity to E. coli RcnR)). The experiment in a line: fluorescence anisotropy. As to conditions: Ni(II), 1:1 NiII:RcnR tetramer; 10 nM DNA, 60 mM NaCl, 240 mM KCl, 10 mM HEPES pH 7.5, 25 C, anaerobic, Chelex-treated N2-purged buffers; apo-RcnR Kd 1.5e-7 M is from earlier work (ref 39).

For rcnRA operator-promoter, the Kd was found to be 3.09 µM.
